Measurements: the MegaScale stability set (Tsuboyama et al. 2023)

B1: HEEH_KT_rd6_3546 (parent)
chain: SEEDKEREHWERLNRDFELRVLDTTFIAHHAEEVIKLLRWLEK

Variants of: B1
Assay: folding stability dG (cDNA display proteolysis); higher = more stable
Conditions: PBS, room temperature

Folding stability dG [kcal/mol]: each site, then its substitutions
A28: E 0.888, V 1.51, G 1.01, Y 1.64, W 2.14, F 1.94, T 1.2, N 0.915, K 1.29, L 1.99, R 1.48, P 0.699, I 1.82, Q 0.99, S 1.15, M 1.84, D 0.777, C 2.23, H 0.802
K36: V 1.87, S 1.23, M 1.93, H 1.24, C 2.09, F 2.13, R 1.51, Y 1.82, P 0.419, L 1.92, E 0.928, A 1.56, Q 1.23, G 1.14, N 1.28, D 1, T 1.28, W 1.87, I 2.02
H30: G 1.44, K 1.13, L 2.38, S 1.23, E 0.893, W 2.69, F 2.3, A 2.04, R 1.07, D 0.85, T 1.72, Q 1.06, P 0.902, I 2.09, M 2.34, N 1.09, Y 2.05, C 1.6, V 2.38
V21: A 1.33, I 1.84, Y 1.5, K 1.03, E 1.06, H 1.22, M 1.41, P 0.85, L 1.85, N 1.23, Q 1.3, R 1.41, G 1.49, T 1.27, S 1.16, F 1.72, D 1.09, W 1.95
L19: W 1.49, S 0.796, I 1.39, T 0.795, M 0.996, E 0.795, F 1.42, Q 0.821, P 0.862, H 0.971, R 1.21, N 0.808, V 1.05, K 0.521, Y 1.14, G 0.617
T25: A 1.46, V 1.61, Y 1.65, D 1.2, P 0.992, M 1.36, K 1.16, L 2.18, Q 0.911, E 1.31, G 0.905, I 1.7, F 2.35, H 1.29, S 1.52, N 1.26, R 1.41, W 2.16, C 1.75
V34: D 0.006, T 0.62, H 0.255, C 1.54, F 1.61, G 0.3, Y 1.06, I 1.75, A 1.06, L 1.57, R 0.162, M 1.2, S 0.133, E 0.228, N -0.04, K 0.1, Q -0.202, W 1.47
R20: G 1.29, N 1.23, E 0.819, D 1.18, M 1.63, T 1.4, H 1.39, V 1.68, S 1.35, I 1.99, L 1.93, P 0.684, Y 2.39, C 2.37, A 1.04, F 2.21, Q 1.05, W 2.38, K 1.36
A31: V 2.1, W 2.28, I 2.19, C 2.24, M 1.79, P 0.618, Q 0.833, K 1.09, L 1.94, Y 1.61, G 0.934, H 0.66, T 1.33, D 0.6, R 1.07, N 0.698, F 1.96, S 0.872, E 0.663
D23: L 2.86, I 3.03, S 1.94, E 1.29, A 2.35, M 2.76, R 1.87, F 3.18, W 2.85, H 2.01, G 1.64, Q 1.64, K 1.6, V 3, P 1.35, T 2.27, N 1.45, Y 2.92
E33: Q 1.46, M 2.06, F 2.31, N 1.45, G 1.47, T 1.47, H 1.41, I 2.31, A 1.74, C 2.69, W 2.45, L 2.05, K 1.62, R 1.46, D 1.34, Y 2.16, V 2.06, P 0.926, S 1.44
I35: N 0.739, V 1.17, H 0.843, T 0.787, G 0.628, K 0.927, E 0.843, Y 1.33, F 1.49, A 1.03, P -0.407, S 0.508, R 1.12, Q 0.925, M 1.33, L 1.47, C 1.88, W 1.59, D 0.67
I27: Q 0.497, V 0.996, L 1.37, T 0.562, R 0.466, K 0.613, M 1.12, A 0.784, W 1.88, Y 1.25, E 0.508, D 0.608, F 1.58, C 2.33, N 0.776, G 0.669, P 0.57, H 0.648, S 0.654
L37: A 0.846
F26: A 0.696, S 0.703, Y 1.04, M 0.674, Q 0.576, I 0.875, R 0.974, G 0.568, E 0.588, K 0.504, D 0.665, V 0.759, N 0.663, W 1.7, L 0.925, T 0.642, H 0.83, P 0.393
H29: T 1.35, Q 1.23, I 2.5, N 1.3, M 1.98, C 1.85, Y 1.94, R 1.68, A 1.49, G 1.17, P 0.857, L 1.59, W 2.01, D 1.05, S 1.59, V 1.61, E 1.45, K 1.77, F 2.21
E32: L 1.92, G 1.2, D 1.23, M 1.72, R 1.37, Q 1.29, N 1.26, I 1.73, Y 1.9, V 1.79, H 1.42, F 2.21, S 1.42, C 1.31, T 1.43, K 1.54, A 1.93, W 2.1, P 1.25
L22: S 0.925, N 1.06, K 0.899, G 1.48, R 1.07, F 1.42, M 1.3, Y 1.67, H 0.824, D 0.869, A 1.06, V 1.18, Q 0.891, E 0.622, W 1.35, I 1.53, P 0.989, T 0.948
T24: A 1.41, K 1.07, Q 1.02, F 2.01, Y 1.79, P 1.22, D 0.925, W 2.13, I 2.24, H 1.13, E 0.926, R 1.25, V 2.13, L 2.19, M 1.82, G 0.995, S 1.06, N 1.28
